Reference: patent US20240352096A1 (KANGLIN BIOTECHNOLOGY HANGZHOU, published 2024)

B1: Anti-HIV tritropic neutralizing antibody-like molecule KL-BsHIV01-003-02 (other)
chain: SELTQDPAVSVALKQTVTITCRGDSLRSHYASWYQKKPGQAPVLLFYGKNNRPSGIPDRFSGSASGNRASLTITGAQAEDEADYYCSSRDKSGSRLSVFGGGTKLTVLGGGGSGGGGSGGGGSEVRLRESGGGLVKPGGSLRLSCSASGFDFDNAWMTWVRQPPGKGLEWVGRITGPGEGWSVDYAESVKGRFTISRDNTKNTLYLEMNNVRTEDTGYYFCARTGKYYDFWFGYPPGEEYFQDWGQGTLVIVSSGGGGSGGGGSGGGGSGGGGSGGGGSDIVMTQSPDSLAVSLGERVTMNCKSSQSLLYSTNQKNYLAWYQQKPGQSPKLLIYWASTRESGVPDRFSGSGSGTDFTLTISSVQAEDVAVYYCQQYYSYRTFGGGTKLEIKRTVAGGGGSGGGGSGGGGSQVQLQQSGPEVVKPGASVKMSCKASGYTFTSYVIHWVRQKPGQGLDWIGYINPYNDGTDYDEKFKGKATLTSDTSTSTAYMELSSLRSEDTAVYYCAREKDNYATGAWFAYWGQGTLVTVSSGGGGSGGGGSGGGGSGGGGSGGGGSWEQKIEELLKKAEEQQKKNEEELKKLEK
B2: Anti-HIV amphotropic neutralizing antibody-like molecule KL-BsHIV01-02 (bispecific antibody)
chain: SELTQDPAVSVALKQTVTITCRGDSLRSHYASWYQKKPGQAPVLLFYGKNNRPSGIPDRFSGSASGNRASLTITGAQAEDEADYYCSSRDKSGSRLSVFGGGTKLTVLGGGGSGGGGSGGGGSEVRLRESGGGLVKPGGSLRLSCSASGFDFDNAWMTWVRQPPGKGLEWVGRITGPGEGWSVDYAESVKGRFTISRDNTKNTLYLEMNNVRTEDTGYYFCARTGKYYDFWFGYPPGEEYFQDWGQGTLVIVSSGGGGSGGGGSGGGGSGGGGSGGGGSDIVMTQSPDSLAVSLGERVTMNCKSSQSLLYSTNQKNYLAWYQQKPGQSPKLLIYWASTRESGVPDRFSGSGSGTDFTLTISSVQAEDVAVYYCQQYYSYRTFGGGTKLEIKRTVAGGGGSGGGGSGGGGSQVQLQQSGPEVVKPGASVKMSCKASGYTFTSYVIHWVRQKPGQGLDWIGYINPYNDGTDYDEKFKGKATLTSDTSTSTAYMELSSLRSEDTAVYYCAREKDNYATGAWFAYWGQGTLVTVSS

Legend:
Assay in all cases: cell-based or functional assay
[1] = target: T1, HIV-1 envelope protein of HIV-1 strain pAD-8 (CCR5 tropism) (HIV-1 strain pAD-8)
[2] = target: T2, HIV-1 envelope protein of HIV-1 strain pNL4-3 (CXCR4 tropism) (HIV-1 strain pNL4-3)
[3] = target: T1, HIV-1 envelope protein of HIV-1 strain …; remark: listed apart in the source
[4] = target: T2, HIV-1 envelope protein of HIV-1 strain …; remark: listed apart in the source
[5] = target: T1, HIV-1 envelope protein of HIV-1 strain …; remark: listed apart in the source
[6] = target: T2, HIV-1 envelope protein of HIV-1 strain …; remark: listed apart in the source

Binder	Neutralization percentage; serum of mice injected with AAV vector, serum stock volume 0.005 uL; TZM-bl luciferase [1]	Neutralization percentage; serum of mice injected with AAV vector, serum stock volume 0.05 uL; TZM-bl luciferase [1]	Neutralization percentage; serum of mice injected with AAV vector, serum stock volume 0.5 uL; TZM-bl luciferase [1]	Neutralization percentage; serum of mice injected with AAV vector, serum stock volume 0.005 uL; TZM-bl luciferase [2]	Neutralization percentage; serum of mice injected with AAV vector, serum stock volume 0.05 uL; TZM-bl luciferase [2]	Neutralization percentage; serum of mice injected with AAV vector, serum stock volume 0.5 uL; TZM-bl luciferase [2]	Neutralization percentage; AAV vector-transduced C2C12 supernatant, antibody concentration 2.5 ng/ml; TZM-bl luciferase [3]	Neutralization percentage; AAV vector-transduced C2C12 supernatant, antibody concentration 5 ng/ml; TZM-bl luciferase [3]	Neutralization percentage; AAV vector-transduced C2C12 supernatant, antibody concentration 10 ng/ml; TZM-bl luciferase [3]	Neutralization percentage; AAV vector-transduced C2C12 supernatant, antibody concentration 2.5 ng/ml; TZM-bl luciferase [4]	Neutralization percentage; AAV vector-transduced C2C12 supernatant, antibody concentration 5 ng/ml; TZM-bl luciferase [4]	Neutralization percentage; AAV vector-transduced C2C12 supernatant, antibody concentration 10 ng/ml; TZM-bl luciferase [4]	IC50 for neutralizing HIV-1 strain pAD-8 (CCR5 tropism); purified antibody, TZM-bl luciferase [5]	IC50 for neutralizing HIV-1 strain pNL4-3 (CXCR4 tropism); purified antibody, TZM-bl luciferase [6]
B1	-11.7%	-6.85%	62.5%	23.4%	56.7%	99.4%	100%	100%	100%	101%	101%	100%	3.1 pM	0.2 pM
B2	-15.7%	-4.43%	81.7%	27.7%	79%	100%	100%	100%	100%	100%	101%	100%	–	–
